Laboratory results taken from patent publication US20240424107, “PREPARATION OF SITE-SPECIFIC POLYPEPTIDE CONJUGATES” (POSTECH RESEARCH AND BUSINESS DEVELOPMENT FOUNDATION, published 2024).

Target: trastuzumab (humanized IgG1 monoclonal antibody) (UniProt P01857-1;P01834 P01857-1:1-330,P01834:1-107)
Assay: covalent conjugation at heavy chain only, at least one per antibody; HEPES pH 8.4, Mg, K, 37 C, 1 day
Conditions: chain copies: 2
Text: Whether the aptamer brings oxanine close to the amine group of the target protein, enabling proximity-enhanced covalent bond formation, was monitored with SDS-PAGE (protein bands) and electrophoresis (DNA bands).

Chain of trastuzumab (humanized IgG1 monoclonal antibody) (P01857 other isoform, or with tags, fused parts or gaps, chain 1 of 2, other chains not shown): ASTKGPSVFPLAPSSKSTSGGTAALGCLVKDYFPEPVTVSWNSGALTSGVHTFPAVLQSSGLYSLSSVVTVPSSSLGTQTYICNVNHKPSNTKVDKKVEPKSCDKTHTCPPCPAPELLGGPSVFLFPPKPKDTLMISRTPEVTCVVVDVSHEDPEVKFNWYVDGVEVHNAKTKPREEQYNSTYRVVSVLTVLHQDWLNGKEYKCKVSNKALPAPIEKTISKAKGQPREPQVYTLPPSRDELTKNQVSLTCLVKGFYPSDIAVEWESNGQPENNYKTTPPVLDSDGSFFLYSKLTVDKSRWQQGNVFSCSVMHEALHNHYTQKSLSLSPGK

B1: Fc RNA aptamer Apt8-2-oxanine (mixed)
DNA: GGAGGTGCTCCGAAAGGAACTCC
modifications: printed ggAGG[2'-F-rU]Gc[2'-F-rU]ccgaaaGgaa[2'-F-rC][2'-F-rU]cc (lowercase DNA, uppercase RNA); about 10 oxanine nucleotides added at 3' end
**Q.** Does B1 bind?
**A.** binds
